Source: patent US20220227830A1, “QD DOSING OF GIP RECEPTOR AGONIST PEPTIDE COMPOUNDS AND USES THEREOF” (Takeda Pharmaceutical Company Limited, priority 2020, published 2022)
Starred links: 1 amine or outer side, 2 acyl side, 3 side chain; linkers in the order of their positions; H or OH if unused. Non-standard residues stand in square brackets, D forms with d. Groups on a side chain read outwards from the residue. No end group written: not given here. *: point of attachment. 2OEGgE‑C16DA = O=C(O)CCCCCCCCCCCCCCC(=O)N[C@@H](CCC(=O)NCCOCCOCC(=O)NCCOCCOCC(=O)*)C(=O)O; C15 diacid = O=C(O)CCCCCCCCCCCCCC(=O)*; γGlu = O=C(O)[C@H](CCC(=O)[*:2])N[*:1]; NMeY = CN[C@@H](Cc1ccc(O)cc1)C(=O)O; AEEA = NCCOCCOCC(=O)O; Aib = CC(C)(N)C(=O)O

T1: full-length human GIPR with an N-terminal FLAG tag (human, UniProt P48546 22-466)
T1 sequence (looked up): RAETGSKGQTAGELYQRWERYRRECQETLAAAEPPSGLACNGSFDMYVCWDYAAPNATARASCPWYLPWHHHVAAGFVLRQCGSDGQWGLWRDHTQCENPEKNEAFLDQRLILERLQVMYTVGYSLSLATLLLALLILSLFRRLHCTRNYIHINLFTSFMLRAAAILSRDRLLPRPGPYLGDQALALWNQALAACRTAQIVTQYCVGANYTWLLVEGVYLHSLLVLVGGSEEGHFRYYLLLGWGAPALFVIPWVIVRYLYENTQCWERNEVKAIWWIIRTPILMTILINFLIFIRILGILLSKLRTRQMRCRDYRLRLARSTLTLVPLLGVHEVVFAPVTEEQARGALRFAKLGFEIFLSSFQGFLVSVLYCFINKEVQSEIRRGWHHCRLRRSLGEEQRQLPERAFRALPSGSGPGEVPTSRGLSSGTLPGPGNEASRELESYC


Key:
[1] = molecular target: T1, full-length human GIPR with an …; experiment: cell-based or functional assay
[2] = molecular target: full-length human GLP-1R with an N-terminal FLAG tag (human, UniProt P43220 24-463); experiment: cell-based or functional assay

Binder	Human GIPR cAMP, HEK293T EC50 [1] [nM]	Human GLP1R cAMP HEK293T EC50 [2] [nM]
[NMeY][Aib]EGTFISDYSI[Aib]LDR[Aib]AQ[Aib]NFVNWLLAQKPSSGAPPPS-NH2 (not fully specified (residue 30)) [Compound 123]	0.0004	22.9
[NMeY][Aib]EGTFISDYSIALDR[Aib]AQ[Aib]KFVNWLLAQR-NH2 (not fully specified (residue 21)) [Compound 121]	0.0003	5.5
[NMeY][Aib]EGTFISDYSI[Aib]LDR[Aib]K([AEEA-AEEA-γGlu-C15 diacid])Q[Aib]DFVNWLLAQR-NH2 (N-terminus assumed; SMILES CC[C@H](C)[C@H](NC(=O)[C@H](Cc1ccccc1)NC(=O)[C@@H](NC(=O)CNC(=O)[C@H](CCC(=O)O)NC(=O)C(C)(C)NC(=O)[C@H](Cc1ccc(O)cc1)NC)[C@@H](C)O)C(=O)N[C@@H](CO)C(=O)N[C@@H](CC(=O)O)C(=O)N[C@@H](Cc1ccc(O)cc1)C(=O)N[C@@H](CO)C(=O)N[C@H](C(=O)NC(C)(C)C(=O)N[C@@H](CC(C)C)C(=O)N[C@@H](CC(=O)O)C(=O)N[C@@H](CCCNC(=N)N)C(=O)NC(C)(C)C(=O)N[C@@H](CCCCNC(=O)COCCOCCNC(=O)COCCOCCNC(=O)CC[C@H](NC(=O)CCCCCCCCCCCCCC(=O)O)C(=O)O)C(=O)N[C@@H](CCC(N)=O)C(=O)NC(C)(C)C(=O)N[C@@H](CC(=O)O)C(=O)N[C@@H](Cc1ccccc1)C(=O)N[C@H](C(=O)N[C@@H](CC(N)=O)C(=O)N[C@@H](Cc1c[nH]c2ccccc12)C(=O)N[C@@H](CC(C)C)C(=O)N[C@@H](CC(C)C)C(=O)N[C@@H](C)C(=O)N[C@@H](CCC(N)=O)C(=O)N[C@@H](CCCNC(=N)N)C(N)=O)C(C)C)[C@@H](C)CC) [Compound 118]	0.0009	525
[NMeY][Aib]EGTFISDYSI[Aib]LDRKAQ[Aib]NFVNWLLAQRPSSGAPPPS-NH2 (not fully specified (residue 17)) [Compound 122]	0.0004	20.4
[NMeY][Aib]EGTFISDYSIAK([Gly-Gly-Gly-Gly-Gly-γGlu-C15 diacid])DR[Aib]AQ[Aib]DFVNWLLAQRPSSGAPPPS-NH2 (N-terminus assumed; SMILES CC[C@H](C)[C@H](NC(=O)[C@H](CO)NC(=O)[C@H](Cc1ccc(O)cc1)NC(=O)[C@H](CC(=O)O)NC(=O)[C@H](CO)NC(=O)[C@@H](NC(=O)[C@H](Cc1ccccc1)NC(=O)[C@@H](NC(=O)CNC(=O)[C@H](CCC(=O)O)NC(=O)C(C)(C)NC(=O)[C@H](Cc1ccc(O)cc1)NC)[C@@H](C)O)[C@@H](C)CC)C(=O)N[C@@H](C)C(=O)N[C@@H](CCCCNC(=O)CNC(=O)CNC(=O)CNC(=O)CNC(=O)CNC(=O)CC[C@H](NC(=O)CCCCCCCCCCCCCC(=O)O)C(=O)O)C(=O)N[C@@H](CC(=O)O)C(=O)N[C@@H](CCCNC(=N)N)C(=O)NC(C)(C)C(=O)N[C@@H](C)C(=O)N[C@@H](CCC(N)=O)C(=O)NC(C)(C)C(=O)N[C@@H](CC(=O)O)C(=O)N[C@@H](Cc1ccccc1)C(=O)N[C@H](C(=O)N[C@@H](CC(N)=O)C(=O)N[C@@H](Cc1c[nH]c2ccccc12)C(=O)N[C@@H](CC(C)C)C(=O)N[C@@H](CC(C)C)C(=O)N[C@@H](C)C(=O)N[C@@H](CCC(N)=O)C(=O)N[C@@H](CCCNC(=N)N)C(=O)N1CCC[C@H]1C(=O)N[C@@H](CO)C(=O)N[C@@H](CO)C(=O)NCC(=O)N[C@@H](C)C(=O)N1CCC[C@H]1C(=O)N1CCC[C@H]1C(=O)N1CCC[C@H]1C(=O)N[C@@H](CO)C(N)=O)C(C)C) [Compound 126]	0.0002	589
[NMeY][Aib]EGTFISDYSIAK(2OEGgE‑C16DA)DR[Aib]AQ[Aib]NFVNWLLAQK [Compound 11]	0.0003	145
[NMeY][Aib]EGTFISDYSI[Aib]KDR[Aib]AQ[Aib]NFVNWLLAQRPSSKKKKKK-NH2 (not fully specified (residue 14, N-terminus)) [Compound 124]	0.004	126
[NMeY][Aib]EGTFISDYSIAK([Gly-Gly-Gly-Gly-Gly-γGlu-C15 diacid])DR[Aib]AQ[Aib]NFVNWLLAQSPSSGAPPPS-NH2 (N-terminus assumed; SMILES CC[C@H](C)[C@H](NC(=O)[C@H](CO)NC(=O)[C@H](Cc1ccc(O)cc1)NC(=O)[C@H](CC(=O)O)NC(=O)[C@H](CO)NC(=O)[C@@H](NC(=O)[C@H](Cc1ccccc1)NC(=O)[C@@H](NC(=O)CNC(=O)[C@H](CCC(=O)O)NC(=O)C(C)(C)NC(=O)[C@H](Cc1ccc(O)cc1)NC)[C@@H](C)O)[C@@H](C)CC)C(=O)N[C@@H](C)C(=O)N[C@@H](CCCCNC(=O)CNC(=O)CNC(=O)CNC(=O)CNC(=O)CNC(=O)CC[C@H](NC(=O)CCCCCCCCCCCCCC(=O)O)C(=O)O)C(=O)N[C@@H](CC(=O)O)C(=O)N[C@@H](CCCNC(=N)N)C(=O)NC(C)(C)C(=O)N[C@@H](C)C(=O)N[C@@H](CCC(N)=O)C(=O)NC(C)(C)C(=O)N[C@@H](CC(N)=O)C(=O)N[C@@H](Cc1ccccc1)C(=O)N[C@H](C(=O)N[C@@H](CC(N)=O)C(=O)N[C@@H](Cc1c[nH]c2ccccc12)C(=O)N[C@@H](CC(C)C)C(=O)N[C@@H](CC(C)C)C(=O)N[C@@H](C)C(=O)N[C@@H](CCC(N)=O)C(=O)N[C@@H](CO)C(=O)N1CCC[C@H]1C(=O)N[C@@H](CO)C(=O)N[C@@H](CO)C(=O)NCC(=O)N[C@@H](C)C(=O)N1CCC[C@H]1C(=O)N1CCC[C@H]1C(=O)N1CCC[C@H]1C(=O)N[C@@H](CO)C(N)=O)C(C)C) [Compound 125]	0.0002	166
[NMeY][Aib]EGTFISDYSIALDR[Aib]KQ[Aib]NFVNWLLAQSPSSGAPPPS-NH2 (not fully specified (residue 18, N-terminus)) [Compound 119]	0.0005	1000
